Experimental findings from article PMC3262080 are described below.

In the data set the target is HuR (UniProt Q15717 1-326). In words: fluorescence anisotropy. Background: Fluorescence polarisation rises when a labelled molecule tumbles more slowly, as on binding a larger partner.
HuR, sequence (Q15717 whole entry): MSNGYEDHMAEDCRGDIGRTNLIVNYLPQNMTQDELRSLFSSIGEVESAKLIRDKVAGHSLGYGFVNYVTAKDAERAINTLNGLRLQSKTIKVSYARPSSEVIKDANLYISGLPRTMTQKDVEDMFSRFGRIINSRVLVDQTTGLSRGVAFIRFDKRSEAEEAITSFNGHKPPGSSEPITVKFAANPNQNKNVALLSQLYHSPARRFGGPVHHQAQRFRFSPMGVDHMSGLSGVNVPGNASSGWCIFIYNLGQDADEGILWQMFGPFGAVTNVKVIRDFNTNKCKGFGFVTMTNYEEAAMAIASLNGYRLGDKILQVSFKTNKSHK

B1: miR-16 (mature, 5'TMR-labeled) (ssRNA)
RNA: UAGCAGCACGUAAAUAUUGGCG
For orientation: Kd means the free concentration of one partner at which half of the binding sites on the other are occupied at equilibrium, for simple one-to-one binding. Read a high Kd as weaker binding. For the molecule B1, the Kd was determined as 120 ± 9 nM.
